Data from patent US20240239875A1 (published 2024).
Where two headings read alike, the source gives them in different places.

How the values were obtained:
Assay in all cases: ELISA
[1] = biological target: T1, SARS-CoV-2 prefusion stabilized trimer protein (WIV02 isolate spike protein) (UniProt P0DTC2 14-1213)
[2] = biological target: SARS-CoV-2 receptor binding domain (UniProt P0DTC2 319-541)
[3] = biological target: T1, SARS-CoV-2 prefusion stabilized trimer …; remark: listed apart in the source
SARS-CoV-1 spike protein = SARS-CoV-1 spike protein (SARS-CoV-1, UniProt P59594 14-1195)
SARS-CoV-2 S2 domain = SARS-CoV-2 S2 domain (UniProt P0DTC2 686-1213)

B1: 9-L13-A (antibody, V domains shown)
VH: QVQLKESGPGLVAPSQSLSITCTVSGFSLTSYAISWVRQPPGKGLEWLGLIWTGGGTNYNSALKSRLSISKDNSKSQIFLKMNSLQTDDTARYYCARGPPLIYYGDLYYFDYWGQGTTLTVSS
VL: DIQMTQSPSSLSASLGGKVTITCKASQDINKYIAWYQHKPGKGPRLLIHYTSTLQPGIPSRFSGSGSGRDYSFSISNLEPEDIATYYCLQYDNLWTFGGGTKLEIK
**Q.** Which EC50 [1] does the source give for B1 here?
**A.** Its EC50 is 8.18 nM.

**Q.** What about the EC50 [2] of the same binder?
**A.** Its EC50 is 26.9 nM.

**Q.** And the EC50 [3]?
**A.** Its EC50 is 8.45 nM.

**Q.** And the EC50 (SARS-CoV-1 spike protein)?
**A.** The EC50 was 6.31 nM.

B2: 10-O3-A (antibody, V domains shown)
VH: QVQLKESGPGLVAPSQSLSITCTVSGFSLTNYAVHWVRQSPGKGLEWLGVIWSDGRTDYNAAFISRLSISKDNSKSQVFFKMNSLQADDTAIYYCVRIEGGSYVGWYFDVWGAGTTVTVSS
VL: DIQMTQSPSSLSASLGGTVTITCKASQDINKFIAWYQHKPGKGPRLLIHYTSTLQPGIPSRFSGSGSGRDYSFSISNLEPEDIATYYCLQYDNLLTFGAGTKLELK
**Q.** Which EC50 [1] does the source give for B2 here?
**A.** The EC50 was 3.37 nM.

**Q.** What about the EC50 [3] of the same binder?
**A.** The EC50 was 3.47 nM.

B3: 9-P9-A (antibody, V domains shown)
VH: DVKLVESGEGLVKPGGSLKLSCAASGFSFSNFGMSWVRQTPEKRLEWVAYISSGGDYIYYADTVKGRFTISRDNARNTLYLQMSSLKSEDTAIYYCTRGYFDYWGQGTTLTVSS
VL: DVLMTQTPLSLPVSLGDQASISCRSSQSIVHSNGNTYLEWYLQKPGQSPKLLIYTVSNRFSGVPDRFSGSGSGTDFTLKISRVEAEDLGVYYCFQGSHVPYTFGGGTKLEMR
**Q.** For B3, which EC50 [1] is on record?
**A.** Its EC50 is 0.05 nM.

**Q.** What about the EC50 [3] of the same binder?
**A.** The EC50 was 0.05 nM.

**Q.** And the EC50 (SARS-CoV-1 spike protein)?
**A.** The EC50 was 0.06 nM.

**Q.** What about the EC50 (SARS-CoV-2 S2 domain) of the same binder?
**A.** Its EC50 is 0.04 nM.

B4: 4-C3-A (antibody, V domains shown)
VH: EVQLQQSGPELVKPGASVKISCKASGYSFTGYYMHWVKQSHGNILDWIGYIYPYNGVSSYNQKFKGKATLTVDKSSSTAYMELRSLTSEASAVYYCARAYGSSYDYYYGLDYWGQGTSVTVSS
VL: DIVLTQSPASLAVSLGQRATISCKASQSVDYDGAGYMNWYQQKPGQPPKLLISSASNLQSGIPARFSGSGSGTDFTLNIHPVEEEDAATYYCQQSNDDPYTFGGGTKLEIK
**Q.** How did the EC50 [1] turn out when B4 was run?
**A.** Its EC50 is 0.08 nM.

**Q.** And the EC50 [3]?
**A.** The EC50 was 0.54 nM.

**Q.** And the EC50 (SARS-CoV-2 S2 domain)?
**A.** Its EC50 is 81.1 nM.

B5: 4-K13-A (antibody, V domains shown)
VH: QAYLQQSGAELVRPGASVKMSCKASGYTFTSYTVHWVKQTPRQGLEWIGAIYPGNVDTSYNQNFKGKATLTVDKSSSTAYMQLSSLTSEDSAVYFCARDGYYAMDYWGQGTSVTVSS
VL: not shown
**Q.** Which results are given for B5?
**A.** EC50 [2]: 0.15 nM; EC50 [3]: 0.14 nM; EC50 (SARS-CoV-2 S2 domain): 87 nM

B6: 5-H22-A (antibody, V domains shown)
VH: QVQLQQSGAELVRPGASVTLSCKASGYTFTDYEMHWMKQTPVHGLEWIGAIDLETGGTVYNQKFKGKAILTADKSSNTAYMALRSLTSEDSAVYYCTREFPHYYGSRYGFPYWGQGTLVTVSA
VL: QIVLTQSPAIMSASPGEKVTITCSASSSVSYMHWLQQKPGTSPKLWIYSTSNLASGVPARFSGSGSGTSYSLTISRMEAEDAATYYCQQRSSYPYTFGGGTKLEIK
**Q.** With B6 as the binder, how does the EC50 [1] read?
**A.** Its EC50 is 18.5 nM.

**Q.** And the EC50 [2]?
**A.** The EC50 was 166 nM.

**Q.** What about the EC50 [3] of the same binder?
**A.** Its EC50 is 75.5 nM.

B7: 9-J11-A (antibody, V domains shown)
VH: QVQLQQSGAELVKPGASVKMSCMASGYTFTTYPIEWMKQIHGKSLEWIGNFHPYNDDSKYNEKFKGKATLSVEKSSSTVYLELSRSTSDDSAVYYCARGSYGPYWYFDVWGTGTTVTVSS
VL: DIQMTQSPASLSASVGETVTITCRASGDIHNYLVWYQQKQGKSPQLLVYNAKALADGVPSRFSGSGSGTQYSLKINSLQPDDFGSYYCQHFWSIPYTFGGGTKLEIK
**Q.** For B7, which EC50 [1] is on record?
**A.** Its EC50 is 0.22 nM.

**Q.** And the EC50 [3]?
**A.** Its EC50 is 0.22 nM.

B8: 3-E13-A (antibody, V domains shown)
VH: EVQLQQSGPELVKPGASVKMSCKASGYTFTDYNIHWVKQSHGKSLEWIGYINPNNGGTDYNQKFQGKATLTVNKSSSTAYMELRSLTSEDFAVYYCARGGFYGNYGAYYGMDFWGQGTSVTVSS
VL: DIQMTQSPASLSASVGETVTITCRTSENIYSHLAWYQQTQGKSPQLLVYNAKTLAEGVPSRFSGSGSGTHFSLKINSLQPEDFGSYYCQHHYGIPPEFGGGTKLEIK
**Q.** With B8 as the binder, how does the EC50 [1] read?
**A.** The EC50 was 0.08 nM.

**Q.** And the EC50 [3]?
**A.** Its EC50 is 0.08 nM.

**Q.** What about the EC50 (SARS-CoV-1 spike protein) of the same binder?
**A.** Its EC50 is 0.16 nM.

**Q.** What about the EC50 (SARS-CoV-2 S2 domain) of the same binder?
**A.** Its EC50 is 0.05 nM.

B9: 6-C19-A (antibody, V domains shown)
VH: EVQLQQSGPELVKPGASVKMSCKASGYTFTDYNIHWVKQSHGKSLEWIGYINPNNGGTDYNQKFQGKATLTVDKSSSTAYMELRSLTSEDSAVYYCARGGFYGNYGSYYGMDFWGQGTSVTVSS
VL: DIQMTQSPASLSASVGETVTITCRTSENIYSHLAWYQQTQGKSPHLLVYNAKTLAEGVPSRFSGSGSGTQFSLKINSLQPEDFGSYFCQHHYGIPPEFGGGTKLEIK
**Q.** For B9, which EC50 [1] is on record?
**A.** The EC50 was 0.48 nM.

**Q.** And the EC50 [3]?
**A.** The EC50 was 0.49 nM.

**Q.** And the EC50 (SARS-CoV-1 spike protein)?
**A.** The EC50 was 1.98 nM.

**Q.** What about the EC50 (SARS-CoV-2 S2 domain) of the same binder?
**A.** Its EC50 is 0.39 nM.

B10: 4-A15-A (antibody, V domains shown)
VH: QVQLQQSGAELVKPGASVKISCKASGNAFSSYWMNWVKQRPGKGLEWIGQIYPGDGDTNFNGRFKGKATLTADISSTTAYMLLSSLTSEDSAVYFCASGGYGSSYERDFDYWGQGTTLTVSS
VL: DIQMNQSPSSLSASLGDTITITCHASQNINVWLSWYQQKPGNIPKLLIYKASNLHTGVPSRFSGSGSGTGFTLTISSLQPEDIATYYCQQGHSYPLTFGGGTKLEIK
**Q.** Which results are given for B10?
**A.** EC50 [1]: 0.34 nM; EC50 [3]: 0.33 nM

B11: 4-K16-A (antibody, V domains shown)
VH: QIQLVQSGPELKKPGETVKISCKASGYTFTTYGMSWVKQAPGKGLKWMGWMSTYSGVPTYADDFKGRFAFSLETSASTAYLQINNLKNEDTATYFCASGDVGYWGQGTTLTVSS
VL: DIVMTQSQKFMSTSVGDRVSVTCKASQNVGTNVAWYQQKPGQSPKALIYSASYRYSGVPDRFTGSGSGTDFTLTISTVQSEDLAEYFCQQYNIYPSTFGGGTKLEIK
**Q.** With B11 as the binder, how does the EC50 [1] read?
**A.** The EC50 was 1.01 nM.

**Q.** And the EC50 [3]?
**A.** The EC50 was 1.04 nM.

B12: 6-L8-A (antibody, V domains shown)
VH: EVQLQQSVAELVRPGASVKLSCTPSGFNIKNTYMHWMKQRPEQGLEWIGRINPANDDTKYAPKFQDKATITADTSSNTAYLQLSSLTSEDTAIYYCVYDVRWYFDVWGTGTTVTVSS
VL: DVVMTQTPLSLPVSLGDQASISCRSSQGLVHSNGNTYLHWYLQKPGQSPKLLIYKVSNRFSGVPDRFSGSGSGTDFTLKISRVEAEDLGVYFCSQSTHVPPTFGAGTKLELK
**Q.** With B12 as the binder, how does the EC50 [1] read?
**A.** The EC50 was 6.8 nM.

**Q.** What about the EC50 [3] of the same binder?
**A.** The EC50 was 7.46 nM.

**Q.** And the EC50 (SARS-CoV-1 spike protein)?
**A.** The EC50 was 43.5 nM.

B13: 8-N24-A (antibody, V domains shown)
VH: QVQLQQPGAELVKPGASVKVSCKASGYTFTSYWMHWVKQRPGQGLEWIGRIHPSDSDTNYYQKFKGKATLSVDKSSSTAYMQLSSLTSEDSAVYYCAIPLYSYDNSGGYYPMDYWGQGTSVTVSS
VL: DIVMTQSQKFMSTSVGDRVTITCKASQNVRTAVAWYQQKPGQSPKKLIYLASNRHTGVPDRFTGSGSGTDFTLAISNVQSEDLADYFCLQHWNYPFTFGSGTRLEIK
**Q.** Which EC50 (SARS-CoV-1 spike protein) does the source give for B13 here?
**A.** Its EC50 is 59 nM.

**Q.** What about the EC50 (SARS-CoV-2 S2 domain) of the same binder?
**A.** The EC50 was 4.43 nM.

B14: 10-I12-A (antibody, V domains shown)
VH: RVQLQQSGPELVRPGTSVKISCKASGYTFTDSYINWVTQRPGQGLDWIGWIFPGNDNTYYNEKFEGKATLTLDKSSSTAYMLLSSLTSEDSAVYFCARSGGLRLGFAYWGQGTLVTVSA
VL: NIVLTQSPASLAVSRGQRATISCRASESVDSYGHSFIHWYQQKPGQPPKILIYLASKLESGVPARFSGSGSRTDFTLTIDPVEADDAATYYCQQNNEDPWTFGGGTKLEIK
**Q.** How did the EC50 [1] turn out when B14 was run?
**A.** Its EC50 is 64.4 nM.

**Q.** What about the EC50 [3] of the same binder?
**A.** Its EC50 is 64.4 nM.
